Measurements as given in paper doi:10.1101/2024.07.08.602551.

Legend:
[1] = biological target: human Twisted gastrulation (residues Cys26-Phe223) (human) (UniProt Q9GZX9); assay: SPR
[2] = biological target: human Twisted gastrulation Leu107Ala (human) (UniProt Q9GZX9); assay: SPR
Sequence of human Twisted gastrulation Leu107Ala (human) (Q9GZX9 26-223 L107A): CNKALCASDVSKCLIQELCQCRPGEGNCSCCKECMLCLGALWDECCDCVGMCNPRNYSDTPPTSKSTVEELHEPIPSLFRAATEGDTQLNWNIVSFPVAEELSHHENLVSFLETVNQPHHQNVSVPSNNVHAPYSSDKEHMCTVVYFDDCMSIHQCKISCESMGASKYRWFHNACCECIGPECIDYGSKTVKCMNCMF

Sequence of human Twisted gastrulation (residues Cys26-Phe223) (human) (Q9GZX9 26-223): as the sequence (Q9GZX9 26-223 L107A) above, with A82L counted along it

Kd [1]: 5 nM
Kd [2]: 11 nM
Substance: human CHRDL2 (Arg24-Thr429) (natural protein)
